Laboratory results published in the MegaScale stability set (Tsuboyama et al. 2023).

B1: 2M8U (parent)
chain: TKAQVIEAFKVFDRDGNGYVTVDYLRKVLNELGDMMPADEIEEMIYEADPQNSGYVQYETFVGMLFL

Variants of: B1
Test: folding stability dG (cDNA display proteolysis); higher = more stable
Conditions: PBS, room temperature

Folding stability dG [kcal/mol]: each site, then its substitutions
E7: G 2.87 | W 2.42 | Q 2.96 | Y 2.7 | C 3.41 | K 3.1 | A 3.46 | S 2.76 | L 3.28 | F 2.86 | V 3.08 | T 2.53 | R 2.85 | H 2.93 | N 3.17 | D 3.41 | P 1.91 | M 3.13 | I 3.07
Q4: I 3.15 | W 3.08 | L 3.21 | H 3.12 | K 3.38 | G 2.99 | M 3.31 | Y 2.97 | F 2.87 | N 3.09 | P 2.35 | V 3.02 | E 3.41 | R 3.34 | S 3.47 | T 3.04
F12: Q 3.12 | S 2.68 | N 3.06 | E 3.15 | H 3.24 | G 3.5 | A 3.36 | C 3.15 | V 3.03 | M 3.33 | P 1.89 | T 2.39 | W 3.32 | K 2.54 | D 2.69 | L 3.08 | R 2.48 | I 3.04
V5: W 4.09 | I 3.81 | A 2.77 | T 2.49 | F 3.59 | Q 2.09 | D 1.89 | E 1.95 | Y 4.08 | R 1.91 | N 2.04 | H 2.36 | G 1.89 | P 1.77 | S 2.1 | K 1.82 | M 3.85 | L 3.95 | C 3.17
I6: D 2.38 | K 2.38 | Y 2.56 | M 3.42 | S 2.25 | V 2.86 | C 3.4 | H 2.76 | T 2.72 | W 2.18 | F 2.6 | R 2.46 | Q 2.31 | A 2.25 | N 2.55 | G 2.34 | L 3.66 | P 1.65 | E 2.81
F9: S 2.13 | E 1.96 | A 2.63 | R 1.98 | I 4.09 | M 3.82 | P 2.32 | N 2.22 | G 2.1 | K 2.18 | L 4.1 | H 2.14 | D 1.85 | Q 2.08 | T 2.47 | Y 2.1 | C 3.12 | W 1.95 | V 3.27
V11: Y 3.07 | E 3.52 | C 3.39 | D 3.13 | Q 3.65 | K 3.72 | F 3.01 | T 3.35 | S 3.56 | R 3.63 | I 3.38 | A 3.77 | N 3.51 | M 3.24 | G 3.28 | W 3.05 | L 3.44 | P 3.14 | H 3.32
K10: P 2.08 | D 2.26 | T 2.77 | V 3.17 | W 3.01 | S 2.86 | I 3.32 | G 2.97 | L 3.25 | R 3.46 | H 2.88 | A 3.13 | C 3.51 | N 2.74 | Q 3.16 | Y 2.79 | F 3.21 | E 3.02 | M 3.15
A8: I 3.5 | V 2.84 | W 3.56 | N 2.81 | F 3.23 | D 2.49 | C 3.46 | E 2.59 | L 3.56 | K 3.62 | P 2.02 | S 3.11 | G 2.64 | Y 3.17 | Q 3.3 | M 3.76 | T 2.67 | R 3.6 | H 3.02
